B1: GS3-P5 (dsDNA)
DNA 1: CTTTTCTAAACGATATTCTTCATGAACCAAAGGAGGGAAGCTCATTCCGAAAATTTTTCC
DNA 2: GGAAAAATTTTCGGAATGAGCTTCCCTCCTTTGGTTCATGAAGAATATCGTTTAGAAAAG
B2: GW8-P2 (dsDNA)
DNA 1: GTAACTGACTACCCCCAGTTCCTGCCCTCTTGGGCCTTGGTATTGTTGCTCCAAG
DNA 2: CTTGGAGCAACAATACCAAGGCCCAAGAGGGCAGGAACTGGGGGTAGTCAGTTAC
B3: GS3-P1 (dsDNA)
DNA 1: GCTGCACAACCCGCGATGCCGTCGGCCGGATTTGGGAGGTGGAGCGTCGCCGCCCTCC
DNA 2: GGAGGGCGGCGACGCTCCACCTCCCAAATCCGGCCGACGGCATCGCGGGTTGTGCAGC
B4: GS3-P4 (dsDNA)
DNA 1: CCACCGTCCCCCCTTCCCCCTCCAACCAGATCTGGGAGGAAGGGAGGGAGGGAGGGGAG
DNA 2: CTCCCCTCCCTCCCTCCCTTCCTCCCAGATCTGGTTGGAGGGGGAAGGGGGGACGGTGG
B5: GS3-P3 (dsDNA)
DNA 1: GCCACCCTCCCTACGACGTAGCCAGATATGGGTGGAGAGGTAAGCGCCGCCGCCGCTGC
DNA 2: GCAGCGGCGGCGGCGCTTACCTCTCCACCCATATCTGGCTACGTCGTAGGGAGGGTGGC
B6: GW8-P3 (dsDNA)
DNA 1: CTACTTTCCTTATTCCACTAGAAATCATATATACCTTTCTCACTCTACATAATC
DNA 2: GATTATGTAGAGTGAGAAAGGTATATATGATTTCTAGTGGAATAAGGAAAGTAG
B7: GS3-P2 (dsDNA)
DNA 1: CTCTCCCTTCCATCATTACTTGCCCAAAAACGGCAATCCCCTCCCCTCCATCTCCATGTG
DNA 2: CACATGGAGATGGAGGGGAGGGGATTGCCGTTTTTGGGCAAGTAATGATGGAAGGGAGAG
B8: GW8-P1 (dsDNA)
DNA 1: CTTATAGTCCAACAATTTGAGAGCAATTAATGGTCAAAAATTAAATGAAAAATAGAAATTC
DNA 2: GAATTTCTATTTTTCATTTAATTTTTGACCATTAATTGCTCTCAAATTGTTGGACTATAAG

Target: MBP-OsMADS47 (Oryza sativa (cv. Nipponbare, NIP?), UniProt Q5K4R0 1-250)
Assay: EMSA; EMSA buffer not stated (performed as described previously, ref 61); unlabeled competitors at 10x, 100x, 1000x
Details: protein: recombinant; tags: MBP (N-terminal, pMAL); chain copies: 2; label: biotin 3'-end; blunt

MBP-OsMADS47, sequence (Q5K4R0 whole entry): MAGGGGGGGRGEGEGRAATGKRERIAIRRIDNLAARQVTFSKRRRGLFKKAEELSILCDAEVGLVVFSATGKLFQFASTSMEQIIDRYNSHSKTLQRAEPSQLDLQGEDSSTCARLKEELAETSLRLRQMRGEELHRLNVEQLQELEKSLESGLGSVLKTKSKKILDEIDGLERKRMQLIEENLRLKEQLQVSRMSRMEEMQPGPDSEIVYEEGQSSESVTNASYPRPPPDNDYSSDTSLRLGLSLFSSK

Binding result, binds:
B1
B2
B3
B4
B5
B6
B7
B8
